Data on four molecules can be found in patent US20180355009A1.

To fix the notation:
T1: human IL-22 receptor complex IL22R1 and IL10R2, overexpressed on HEK 293 cells (human) (UniProt Q8N6P7)
T1 sequence (looked up) 1: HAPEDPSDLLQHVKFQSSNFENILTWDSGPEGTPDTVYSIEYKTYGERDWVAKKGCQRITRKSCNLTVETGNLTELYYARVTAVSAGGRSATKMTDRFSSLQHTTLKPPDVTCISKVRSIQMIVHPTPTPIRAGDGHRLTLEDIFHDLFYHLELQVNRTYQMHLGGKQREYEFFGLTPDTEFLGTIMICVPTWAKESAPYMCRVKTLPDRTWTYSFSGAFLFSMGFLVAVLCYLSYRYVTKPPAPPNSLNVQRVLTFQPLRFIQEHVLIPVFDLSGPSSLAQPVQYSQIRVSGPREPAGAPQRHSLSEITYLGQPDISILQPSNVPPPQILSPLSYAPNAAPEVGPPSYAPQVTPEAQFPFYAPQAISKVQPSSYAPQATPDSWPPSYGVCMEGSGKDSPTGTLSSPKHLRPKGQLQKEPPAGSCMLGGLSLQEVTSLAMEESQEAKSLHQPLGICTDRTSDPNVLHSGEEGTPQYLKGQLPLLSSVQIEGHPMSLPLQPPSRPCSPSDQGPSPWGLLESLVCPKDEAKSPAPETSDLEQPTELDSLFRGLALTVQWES
T1 sequence (looked up) 2: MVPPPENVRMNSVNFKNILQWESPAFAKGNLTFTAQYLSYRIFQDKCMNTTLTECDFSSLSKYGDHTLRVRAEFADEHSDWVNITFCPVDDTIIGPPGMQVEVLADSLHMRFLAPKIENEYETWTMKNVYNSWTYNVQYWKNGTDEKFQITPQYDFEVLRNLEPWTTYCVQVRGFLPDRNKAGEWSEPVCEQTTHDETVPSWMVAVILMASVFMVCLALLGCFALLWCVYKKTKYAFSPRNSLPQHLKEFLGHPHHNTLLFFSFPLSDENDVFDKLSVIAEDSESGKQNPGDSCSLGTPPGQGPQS

B1: IL-22 Fc construct 12 (huIgG1, linker …, produced in CHO) (Fc fusion, not shown: a dimerising Fc or GST)
chain: APISSHCRLDKSNFQQPYITNRTFMLAKEASLADNNTDVRLIGEKLFHGVSMSERCYLMKQVLNFTLEEVLFPQSDRFQPYMQEVVPFLARLSNRLSTCHIEGDDLHIQRNVQKLKDTVKKLGESGEIKAIGELDLLFMSLRNACIDKKVEPKSSDKTHT
B2: IL-22 Fc construct 24 (huIgG1, linker …, produced in E. coli) (Fc fusion, not shown: a dimerising Fc or GST)
chain: APISSHCRLDKSNFQQPYITNRTFMLAKEASLADNNTDVRLIGEKLFHGVSMSERCYLMKQVLNFTLEEVLFPQSDRFQPYMQEVVPFLARLSNRLSTCHIEGDDLHIQRNVQKLKDTVKKLGESGEIKAIGELDLLFMSLRNACIEPKSSDKTHT
B3: IL-22 Fc construct 13 (huIgG1, linker …, produced in CHO) (Fc fusion, not shown: a dimerising Fc or GST)
chain: APISSHCRLDKSNFQQPYITNRTFMLAKEASLADNNTDVRLIGEKLFHGVSMSERCYLMKQVLNFTLEEVLFPQSDRFQPYMQEVVPFLARLSNRLSTCHIEGDDLHIQRNVQKLKDTVKKLGESGEIKAIGELDLLFMSLRNACIKVDKKVEPKSSDKTHT
B4: IL-22 Fc construct 18 (huIgG1, linker …, N297G, produced in CHO) (Fc fusion, not shown: a dimerising Fc or GST)
chain: APISSHCRLDKSNFQQPYITNRTFMLAKEASLADNNTDVRLIGEKLFHGVSMSERCYLMKQVLNFTLEEVLFPQSDRFQPYMQEVVPFLARLSNRLSTCHIEGDDLHIQRNVQKLKDTVKKLGESGEIKAIGELDLLFMSLRNACIKKVEPKSSDKTHT

The target in the test is T1, human IL-22 receptor complex IL22R1 and IL10R2, overexpressed on HEK 293 cells (human). In words: cell-based or functional assay.
B1: the EC50 (pM), STAT3 luciferase reporter assay is 25 pM.
In the case of B2, the EC50 (pM), STAT3 luciferase reporter assay came out at 16 pM.
As for B3, the EC50 (pM), STAT3 luciferase reporter assay is 25 pM.
Take B4: the EC50 (pM), STAT3 luciferase reporter assay worked out at 20 pM.
